B1: H1H29138P (antibody, V domains shown)
VH: QVQLVESGGGVVQPGRSLRLSCAASGFTFSTYGMHWVRQAPGKGLEWVAVIWYDGTNKYYADSVKGRFTISRDNSKNTLYLQMISLRAEDTAVYYCARDPSGGDHYYYYGMDVWGQGTTVTVSS
VL: DIQMTQSPSSLSASVGDRITITCQASQDISNYLNWYQQKPGKAPNLLISDASDLETGVPSRFSGSGSGTDFTFTISSLQPEDFATYYCQQYDNIPITFGQGTRLEIKR
B2: H1H29094P (antibody, V domains shown)
VH: not shown
VL: DIQMTQSPSSLSASVGDRVTITCQASQDINRDLNWYQQKSGKGPKLLIYDASNLETGVPSRFSGNRFGTDFTFTISRLQPEDIATYFCQQYKNLPYTFGQGTKLEIKR
B3: H1H29196P2 (antibody, V domains shown)
VH: EVQLVESGGDLVQPGGSLRLSCAASGFAVNGDYFSWVRQAPGKGLEWISVIYSSGNTYYADSVKGRFTISRHNSKNTLYLQMSSLRPEDTAVYYCARDFPPMSGADYWGQGTLVTVSS
VL: not shown
B4: H1H29151P2 (antibody, V domains shown)
VH: QVQLVESGGGLVKPGGSLRLSCAASGFTFSDYYMNWVRQAPGKGLEWVSYISNSGNTQYYADSVKGRFTISRDNAKNSLFLQMNSLRAEDTAVYYCTREGLEYSSSEPFDYWGQGTLVTVSS
VL: not shown
B5: H1H29183P2 (antibody, V domains shown)
VH: QVQLVQSGPEVKKPGASVKVSCKASGYTFTSYGISWVRQAPGQGLEWLGWISGFNGRTDYTEKLQDRITMTTDRSSSTAYMELRSLRYDDTAVYYCARDGLEKLGDYWGQGTLVTVSS
VL: not shown
B6: H1H29146P2 (antibody, V domains shown)
VH: EVQLVESGGGLVQPGGSLQLSCAASGFAFSDSAIYWVRQASGKGLEWVGRIRNKANRFATAYGASVKGRFSIHRDDSKNTAYLQMNSLKTEDTAVYYCARHGHDTLTEGYGMDVWGQGTTVTVSS
VL: not shown
B7: H1H29207P2 (antibody, V domains shown)
VH: EVQLVESGGGLVQPGGSLRLSCAASGFTFSSYAMNWVRQAPGKGLEWVSAVSGSADITNYADSVKGRFTISRDNSKHTLYLQMNSLRAEDTAVYYCAKDKVYNWNYGIYYGMDVWGQGTTVTVSS
VL: not shown
B8: H1H29166P2 (antibody, V domains shown)
VH: EVQLVESGGGLLQPGRSLRLSCVASGFTFDDYAMHWVRQAPGKGLEWVSGISWNSESIGYADSVRGRFTISRDNAKNSLYLQMNSLRAEDTALYYCAKAPYSGTYFEYFRHWGQGTLVTVSS
VL: not shown
B9: H1H29149P2 (antibody, V domains shown)
VH: QVQLQESGPGLVKPSQTLSLTCTVSGGSISSGGYYWNWIRQHPGKGLEWIGYIYYSGSTYYNPSLKSRVTISVDTSKNQFSLKLGSVTAADTAVYYCARAPPYNWFDYWGQGTLVTVSS
VL: not shown
B10: H1H29192P2 (antibody, V domains shown)
VH: QVQLVQSGAEVKKPGASVRVSCMASGYTFTGYYMHWVRQAPGQGLEWMGWINPNSGGTKYAQKFQGRVTMTRDTSISTAYMELSRLRSDDTAVYYCAREEVDDFWSGYLDYWGQGTLVTVSS
VL: not shown
B11: H1H29125P (antibody, V domains shown)
VH: QVQLVESGGGVVQPGRSLRLSCAASGFTFSSYGMHWVRQAPGKGLEWMAVISYDGSNKYYADSVKGRFTISRDNSKNTLFLQMNSLRPEDTAVYYCAQDGSSAIYYFYGMDVWGQGTTVTVSS
VL: DIQMTQSPSSLSASIGDRVTITCRASQDINNYLAWFQQKPGKAPKSLIYAASSLQSGVPSKFSGSGSGTDFTLTISSLQPEDFATYYCLQYNSYHPTFGQGTKLEIKR
B12: H1H29179P2 (antibody, V domains shown)
VH: QVQLQESGPGLVKPSQTLSLTCTVSGGSISSSGYYWSWIRQHPGRGLEWIGYIYYSGSTYYNPSLKSRVTISVDTSKNQFSLKLNSVTAADTAVYYCARVDYGSGSSFDYWGQGTLVTVSS
VL: not shown
B13: H1H29141P (antibody, V domains shown)
VH: QVQLVESGGGVVQPGRSLRLSCAASGFTFSSYGMHWVRQAPGKGLEWVTFISFDERNKYYADSVKGRFTISRDNSKNTLYLQMNSLRAEDTAMYYCASEVGYSFGHDAFDIWGQGTMVTVSS
VL: not shown
B14: H1H29198P2 (antibody, V domains shown)
VH: QVQLVQSGAEVKKPGASVKVSCKVSGYTLTELSMHWVRQAPGKGLEWMGGFDPEHGKIIYAQKFQGRVTMTEDTSTDTAYMELSSLRSEDTAVYYCATFYNWNSYYFGMDVWGHGTTVTVSS
VL: not shown
B15: H1H29171P2 (antibody, V domains shown)
VH: QVQLVESGGGVVQPGRSLRLSCAASGFTFSSYGMHWVRQAPGKGLEWVAVISYDGSNKYYADSVKGRFTISRDNSKNTLYLQMNSLRAEDTAVYYCAKDDWNYDAFDIWGQGTMVTVSS
VL: not shown
B16: H1H29163P2 (antibody, V domains shown)
VH: QVQLVQSGAEVKKPGASVKVSCKTSGYTFTAYYIHWVRQAPGQGLEWMGWINPNNGDTNYALRFQGRVTMTRDMSINTAYMELRGLRSDDTAVYYCARDDLAAAGIGWFDSWGQGTLVTVSS
VL: not shown

The binders below were run against PfRH5 of Plasmodium falciparum strain D10 (on live parasites) (Plasmodium falciparum) (assay: cell-based or functional assay).

Binder | Max growth inhibition (%) D10 [%]
B1 | 57.1
B2 | 35.9
B3 | 14.3
B4 | 38.7
B5 | 6.79
B6 | 10.8
B7 | 73.9
B8 | 70.9
B9 | 66
B10 | 8.7
B11 | 75.4
B12 | 62.5
B13 | 50
B14 | 4.38
B15 | 10.6

These binders were tested against PfRH5 of Plasmodium falciparum strain 7G8 (on live parasites) (Plasmodium falciparum) (assay: cell-based or functional assay).

Binder | Max growth inhibition (%) 7G8 [%]
B1 | 57.4
B16 | 62.6
B2 | 29.9
B3 | 23.4
B4 | 47.5
B5 | 17.8
B6 | 19.1
B7 | 58.7
B8 | 54.6
B10 | 12.4
B11 | 47
B12 | 34.1
B13 | 54.6
B14 | 5.31
B15 | 17

These binders were tested against PfRH5 of Plasmodium falciparum strain FCR-1/FVO (on live parasites) (Plasmodium falciparum) (assay: cell-based or functional assay).

Binder | Max growth inhibition (%) FCR-1/FVO [%]
B1 | 84.1
B16 | 64.5
B2 | 51.2
B3 | 21.9
B4 | 53.7
B5 | 16.1
B6 | 7.32
B7 | 69.2
B8 | 69.7
B9 | 58
B10 | 15.1
B11 | 67.6
B12 | 49
B13 | 74.2
B14 | 11.1
B15 | 11.7

What follows are binders tested against PfRH5 of Plasmodium falciparum strain Dd2 (on live parasites) (Plasmodium falciparum) (assay: cell-based or functional assay).

Binder | Max growth inhibition (%) Dd2 [%]
B1 | 74.4
B16 | 61.2
B2 | 41.6
B3 | -1.65
B4 | 58
B5 | 0.68
B7 | 61.3
B8 | 60
B10 | -15.2
B11 | 51.4
B12 | 13.5
B13 | 65.3
B14 | 10.1
B15 | 7.71

These binders were tested against PfRH5 of Plasmodium falciparum strain RF7 (on live parasites) (Plasmodium falciparum) (assay: cell-based or functional assay).

Binder | Max growth inhibition (%) RF7 [%]
B1 | 51.4
B16 | 10.7
B2 | 15.2
B3 | 3.78
B4 | 18.3
B5 | -6.27
B6 | 5.97
B7 | 31.1
B8 | 19.4
B9 | 14.7
B10 | -7.69
B11 | 21
B12 | -2.99
B13 | 32.1
B14 | 1.53
B15 | -12.5

Each binder was assayed against PfRH5 of Plasmodium falciparum strain HB3 (on live parasites) (Plasmodium falciparum) (assay: cell-based or functional assay).

Binder | Max growth inhibition (%) HB3 [%]
B1 | 51.4
B16 | 56.5
B2 | 45.4
B3 | 26.8
B4 | 31.7
B5 | 4.92
B6 | 33.9
B7 | 49.3
B8 | 54.9
B9 | 40
B10 | 5.62
B12 | 40.9
B13 | 50
B14 | 15.5
B15 | 0.52

What follows are binders tested against PfRH5 of Plasmodium falciparum strain Cam3.II (on live parasites) (Plasmodium falciparum) (assay: cell-based or functional assay).

Binder | Max growth inhibition (%) Cam3.II [%]
B1 | 48.7
B16 | 46.7
B2 | 26.2
B3 | 6.09
B4 | 26.3
B5 | 8.66
B6 | 8.18
B7 | 45.3
B8 | 55.9
B9 | 36.2
B10 | -3.38
B11 | 42.7
B12 | 33.4
B13 | 49.3
B14 | 14.7
B15 | 5.45

Each binder was assayed against PfRH5 of Plasmodium falciparum strain W2-mef (on live parasites) (Plasmodium falciparum) (assay: cell-based or functional assay).

Binder | Max growth inhibition (%) W2-mef [%]
B1 | 66.4
B16 | 63.7
B2 | 34.9
B3 | 17
B4 | 53.9
B5 | -0.55
B6 | 0.57
B7 | 65.2
B8 | 61.9
B9 | 42.8
B10 | 4.35
B11 | 64.6
B12 | 22.9
B13 | 56.2
B14 | -3.61
B15 | 0.74
